Results as given in paper PMC2692910.

Target: αB11.4, α-crystallin domain construct of human αB-Crystallin (human) (UniProt P02511)
Assay: 15N NMR relaxation

αB11.4, α-crystallin domain construct of human αB-Crystallin (from UniProt P02511 57-158) (domain or fragment)
stoichiometry N: 2
